For series [1], the system named is CHO cells stably expressing GUCY2C. The note with it: 20 kBq/µg; 6 days; vs isotype control.
Description: In vitro cytotoxicity of Ac-225-ACC was determined in cell lines expressing different levels of relevant target receptors. Cells were seeded at an appropriate cell density in relevant cell media. One day after seeding, the radiolabeled compounds at the specific activity of 2-20 kBq/µg and radioactive concentration of 50-100 kBq/ml were titrated in parallel with a radiolabeled isotype control. Cells were incubated for 5-6 days. Cell viability was determined by cell counting using Hoechst and PI staining and analyzed on Operetta CLS High Content Analysis System (Perkin Elmer) or by ATP measurements using CellTiterGlo (Promega).
The cells were seeded at an appropriate cell density in MEM Alpha + 10% FBS + 1x Glutamax + 0.5 mg/ml G418. […] Cells were treated for 6 days and subsequentially cell viability was determined using CellTiterGlo (Promega).
The next series deals with GUCY2C (Homo sapiens, UniProt P25092). Description: Immunoreactive fraction (IRF), binding to GUCY2C-coated beads. The procedure: Shortly after completion of the radiolabeling, the binding was assessed by measuring the fraction of radiolabeled antibody-chelator conjugate bound to relevant antigen coated magnetic beads (Thermo Fisher Scientific). In short, beads were placed in 2 mL Eppendorf tubes in 90 µL buffer (PBS/0.1% Tween 20/1% BSA). The radiolabeled compounds were diluted to 5 Bq/µL in buffer and 50 Bq were added to each bead-containing tube. The binding lasted for 60 min while shaking at 750 rpm at room temperature. After completion of the binding step, magnet (DynaMag-2) was used to separate the beads from […] supernatant. The radio activities in the supernatant and in the beads of each sample were measured using a high purity Germanium detector (Ortec). […] Total binding was defined as [(activity in beads […])/ (total activity)] × 100.
After completion of the radiolabeling, the binding Ac225-macropa-Indusatumab to GUCY2C-coated M270-carboxy Dynabeads was determined by IRF (as describe above).

For a further series, the target named is T1, human c-Met (Homo sapiens, UniProt P08581).
T1 construct: MKN-45 and HT-55 cells expressing human c-Met; endogenous in cells; host or cells: MKN-45, HT-55
Description: Flow cytometry, cell surface binding on MKN-45 and HT-55 cells. The note with it: compared to unconjugated Telisotuzumab. The procedure: The in vitro binding properties of antibody-chelator conjugates were assessed in various relevant cell lines and compared to their corresponding unconjugated antibody. Briefly, samples were diluted in buffer (PBS/3% FBS) and added to relevant cell lines. After completion of the binding step (60 min at 4°C), the cells were washed and incubated with secondary antibody conjugated with phycoerythrin to detect antibodies containing a human IgG Fc region. After 60 min at 4°C, the cells were washed, and fluorescence on the cells was determined by flow cytometry using Guava EasyCyte 8HT (Luminex).
Cell surface binding of Telisotuzumab-macropa was compared to unconjugated Telisotuzumab and investigated by flow cytometry using MKN-45 and HT-55 cells expressing human c-Met (Figure 37).

The source of these data is EP4552657A1, “RADIOPHARMACEUTICAL COMPLEXES AND COMBINATIONS” (priority 2023, dated 2025).

T1 sequence (P08581 25-1390): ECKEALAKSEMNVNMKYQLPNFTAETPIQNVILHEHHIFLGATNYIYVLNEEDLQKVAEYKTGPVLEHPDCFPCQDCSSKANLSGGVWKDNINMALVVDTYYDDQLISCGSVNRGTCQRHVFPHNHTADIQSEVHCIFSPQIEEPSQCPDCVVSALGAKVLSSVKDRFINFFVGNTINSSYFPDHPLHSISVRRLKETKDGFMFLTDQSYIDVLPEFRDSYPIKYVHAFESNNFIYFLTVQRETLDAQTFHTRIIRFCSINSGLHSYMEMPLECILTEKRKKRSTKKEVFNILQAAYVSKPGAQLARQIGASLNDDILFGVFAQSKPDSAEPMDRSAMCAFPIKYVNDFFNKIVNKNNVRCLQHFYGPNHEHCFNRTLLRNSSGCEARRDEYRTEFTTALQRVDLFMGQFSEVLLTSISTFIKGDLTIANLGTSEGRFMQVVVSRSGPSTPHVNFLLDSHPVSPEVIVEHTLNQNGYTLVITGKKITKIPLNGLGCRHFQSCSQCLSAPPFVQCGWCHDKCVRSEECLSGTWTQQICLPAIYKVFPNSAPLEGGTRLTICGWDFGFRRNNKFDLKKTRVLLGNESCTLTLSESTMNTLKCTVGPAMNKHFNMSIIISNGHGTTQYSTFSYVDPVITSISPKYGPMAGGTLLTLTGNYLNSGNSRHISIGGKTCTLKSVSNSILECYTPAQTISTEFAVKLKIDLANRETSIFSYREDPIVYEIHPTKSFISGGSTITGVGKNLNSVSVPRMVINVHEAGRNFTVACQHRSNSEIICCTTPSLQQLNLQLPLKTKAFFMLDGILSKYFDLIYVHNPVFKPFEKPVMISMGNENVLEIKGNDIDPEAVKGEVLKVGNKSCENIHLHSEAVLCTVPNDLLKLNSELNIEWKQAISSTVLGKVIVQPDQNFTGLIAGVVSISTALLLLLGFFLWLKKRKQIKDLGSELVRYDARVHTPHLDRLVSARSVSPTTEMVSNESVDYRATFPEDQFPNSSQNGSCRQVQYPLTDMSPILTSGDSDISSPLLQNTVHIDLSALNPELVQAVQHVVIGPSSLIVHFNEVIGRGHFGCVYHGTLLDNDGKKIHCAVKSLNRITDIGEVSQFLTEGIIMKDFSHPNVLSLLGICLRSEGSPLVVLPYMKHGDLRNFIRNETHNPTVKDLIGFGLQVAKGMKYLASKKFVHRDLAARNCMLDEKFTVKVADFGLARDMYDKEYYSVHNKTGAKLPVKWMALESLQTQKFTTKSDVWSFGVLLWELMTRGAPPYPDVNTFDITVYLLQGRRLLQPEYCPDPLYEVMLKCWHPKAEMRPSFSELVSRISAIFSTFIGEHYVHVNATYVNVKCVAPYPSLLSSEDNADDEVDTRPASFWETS

With “Ac-225-macropa-Indusatumab: Ac-225 macropa complex bound to the anti-GUCY2C monoclonal antibody Indusatumab”, the cytotoxicity result in series [1] is “strong and specific cytotoxicity”. For the same substance, the “amount of GUCY2C-coated beads at which maximal binding was achieved” value with GUCY2C was 7.5 µg. As for Telisotuzumab-macropa, in the series with human c-Met, the EC50 entry is reported as “comparable EC50 in both cell lines as unconjugated Telisotuzumab”.
